Laboratory results taken from patent US12194082B2, “Compositions and methods for treatment of homocystinuria” (THE REGENTS OF THE UNIVERSITY OF COLORADO, priority 2016, dated 2025).
Where two headings read alike, the source gives them in different places.

Legend:
[1] = Pharmacokinetics of PEGylated htCBS C15S in HO mice (plasma CBS activity); assay type: in vivo
Protocol: For 20NHS PEG-htCBS C15S, HO mice were administered SQ a dose of 5, 10 or 15 mg/kg dose or were administered IV a dose of 10 mg/kg. For 400MA-htCBS C15S, HO mice received a single dose of 10 mg/kg either SC or IV of one of the three forms: (i) a mixture of all species, where no separation of individual forms has been attempted (mix), (ii) a homoPEGylated specie (Peak 1), and (iii) a hetero/hemiPEGylated species (Peak 2).
Both male and female HO mice were used in this example, and each group contained 3 to 4 mice. Two groups of mice designated “A” and “B” were used for each route of administration to minimize the blood volume taken from any one mouse. For SC administration, blood was collected from group A at 0.5, 3, 24, and 72 hours post-injection and from group B at 1, 6, 48, and 96 hours post-injection. For IV administration, blood was collected from group A at 0.25, 1, 6, and 48 hours post-injection and from group B at 0.5, 3, 24, and 72 hours post-injection.

Hcy, Cth, Cys = experiment: Plasma metabolites in surviving treated KO mice (trough and peak); assay type: in vivo; details: 7.5 mg/kg 3x weekly
Protocol: Plasma metabolites homocysteine, cystathionine and cysteine were determined by stable-isotope-dilution liquid chromatography mass spectrometry as previously described in (Allen et al., 1993, Metabolism, 42: 1448-1460). Measurements of total non-protein bound homocysteine and other aminothiols as well as of amino acids in tissue were performed as described in (Maclean et al., 2010b. Mol. Genet. Metab. 101, 153-162). Metabolites were determined by stable-isotope-dilution liquid chromatography mass spectrometry.
Metabolite levels in surviving KO mice at age of about 4-5 weeks were measured after a weekend washout (trough) and 24 hours after the last injection (peak) using the experimental procedure in Example 1.

[2] = rat, in vivo, sc
Protocol: CBS activity was determined by a radioisotope assay with C^14-labeled serine as a substrate. Ten μl (total 490 ng) of pure htCBS in dilution buffer (0.1 M Tris-HCl pH=8.6, 1 mM DTT, 10 μM PLP, 0.5 mg/ml BSA) or 10 μl of plasma were added to 85 μl of reaction mixture containing 0.1 M Tris-HCl pH=8.6, 10 mM L-serine, 0.5 mM PLP, 0.5 mg/ml BSA and 0.3 μCi (for pure enzyme) or 0.45 μCi (for plasma) of L-[C^14(U)]-Serine. Samples were incubated for 5 min at 37° C. and reaction was initiated by addition of 5 μl of 0.2 M Hcy (10 mM final concentration). Following 30 min of incubation at 37° C., a 20 μl aliquot of the assay mixture was applied onto a grade 3 CHR Whatman (NJ, USA) paper. Assay initiation and sampling of the resulting mixture were staggered so that each reaction time was 30 minutes. Descending paper chromatography was used to isolate the radioactive product (Cth) from a labeled substrate (Ser). The C^14-cystathionine formed in the reaction was separated from C^14-serine by an overnight descending paper chromatography in 2-propanol/formic acid/H2O (75:5.7:18.9 v/v). Radioactivity in the area of the marker cystathionine (detected by staining the marker lane with ninhydrin) was determined by cutting the chromatogram into strips that were submerged in 5 ml of Opti-fluor scintillation cocktail (PerkinElmer, MA, USA) and counted in a Beckman LS-3801 scintillation counter. An enzyme-free sample was used as a blank to monitor the background radioactivity that was then subtracted from each sample. For pure enzyme, specific activity values are expressed as enzyme units (the amount of enzyme that produces 1 μmol of cystathionine/hour) per mg of CBS, and for plasma samples as units per μl plasma.
The pharmacokinetic (PK) parameters were calculated using a non-compartmental curve stripping model which resolves a curve into a series of exponential terms corresponding to the absorption, distribution and elimination phases occurring during the time course of the enzyme in the blood. The curve stripping approach assumes that the disposition phases of the drug follow apparent first-order kinetics, which is evidenced by the linearity in the terminal portion of a semi-log plot. These calculations were made using a modeling program called PK Solutions 2.0 (Summit Solutions, Montrose, CO) using the mean plasma enzyme activity for each route of administration. The bioavailability was calculated by dividing the area under the curve (AUC) for the SC or IP route by the AUC observed after IV administration.
In order to assess the pharmacokinetics of 20NHS PEG-htCBS C15S in rats, wild-type Sprague Dawley rats were injected with a single dose of 20NHS PEG-htCBS C15S through intra-vascular (IV) or sub-cutaneous (SC) routes. The design of a third (repeated dose) PK study (groups 7-9) was adjusted to allow extraction of data after the first dose and thus their combination with a single dose PK study (groups 1-6).
To further evaluate rats as a species for conducting long-term toxicity studies, the pharmacokinetics of 20NHS PEG-htCBS C15S was determined in three groups of Sprague Dawley rats receiving a total of 9 SC injections every 48 hours of either 4 mg/kg (low), 8 mg/kg (mid), or 24 mg/kg (high) 20NHS PEG-htCBS C15S. […] The experiment was conducted for a length of 24 days.

[3] = for Peak @ SS, predicted / Trough @ SS, predicted: 80% bioavailability assumed; for Extrapolated concentration: hypothetical single dose curve
Protocol: Using a dose of 5 mg/kg and correcting for the difference in body surface area between humans (70 kg) and mice (0.025 kg), a dose of 0.4 mg/kg was estimated to be the efficacious human equivalent dose (HED). […] Since the substrate for 20NHS PEG-htCBS C15S activity (Hcy and serine) was the same across species and the site of action was the blood pool itself, these parameters provide an accurate estimate of the target human plasma levels required for efficacy in a 20NHS PEG-htCBS clinical trial.
Interspecies comparisons were conducted based upon body surface area scaling assuming an 80% bioavialability in all 3 species (mouse, rat and monkey) to determine if a linear correlation existed between the log body weight and the log of various PK parameters (AUC/dose, Cmax per dose and T1/2). […] Linear correlations allow predictions of the clinical dose and dosing regimen from the preclinical data to be made.
By extrapolating to the log body weight for humans (70 kg) for each parameter, the AUC/dose, Cmax/dose, and T1/2 was calculated for human subjects.
The human predicted efficacious dose was calculated from the efficacious dose in mice (5 mg/kg) by allometric scaling to be 0.4 mg/kg in a 70 kg human.

[4] = body surface area scaling, 70 kg human
[5] = human, 0.33 mg/kg SC 1x/week (168 h)
[6] = human, 0.33 mg/kg SC 2x/week (84 h)
[7] = human, 0.66 mg/kg SC 1x/week (168 h)
[8] = human, 0.66 mg/kg SC 2x/week (84 h)
[9] = human, 1 mg/kg SC 1x/wk (168 h)

## 20NHS PEG-htCBS C15S: htCBS C15S PEGylated with ME-200GS PEG (20 kDa linear NHS ester-activated PEG)
[1]; 10 mg/kg IV
  E Half-life: 47.6 ± 14.6 h
[1]; mouse, in vivo
  average circulating time of a single enzyme molecule (MRT): 44 to 194 h
[1]; mouse, in vivo, iv, 10 mg/kg
  AUC(0-t) (obs area): 7431 ± 154 mU-hr/μL
  CL (obs area): 1346 ± 27.3 µL/h
  MRT (area): 52 ± 13 h
  cmax (obs): 371.6 ± 11.2 mU/μL
[1]; mouse, in vivo, sc
  AUC/dose: 612 (mU-h/mL)/(mg/kg)
  T1/2: 20 h
  absorption half-life: 5 to 12 h
  bioavailability in HO mice: 52-83%
  cmax/dose: 10 (mU/μL)/(mg/kg)
  tmax: 24 h
[1]; mouse, in vivo, sc, 5 mg/kg
  A Half-life: 5.3 ± 1.1 h
  AUC in mice: 3060 mU−h/mL
  CL (obs area): 1636 ± 86 µL/h
  E Half-life: 137 ± 95 h
  MRT (area): 194 ± 128 h
  cmax/dose: 10.3
[1]; mouse, in vivo, sc, 10 mg/kg
  A Half-life: 12.7 ± 0.6 h
  Bioavailability: 64.6%
  CL (obs area): 2113 ± 280 µL/h
  E Half-life: 17.5 ± 1.27 h
  MRT (area): 44.8 ± 1.7 h
  cmax (obs): 89.9 ± 10.2 mU/μL
  cmax/dose: 9.0
[1]; mouse, in vivo, sc, 15 mg/kg
  A Half-life: 11.9 ± 1.2 h
  Bioavailability: 51.6%
  CL (obs area): 2609 ± 72 µL/h
  E Half-life: 22.0 ± 1.7 h
  MRT (area): 49.0 ± 1.4 h
  cmax (obs): 104.2 ± 11.3 mU/μL
  cmax/dose: 6.9
  half-life determinations in the SC dose groups: 17.5 to 137 h
Hcy, Cth, Cys; 24 hours post-dose
  plasma Cys: 176 ± 6 µM
  plasma Hcy: 96 ± 8 µM
Hcy, Cth, Cys; 72 hours post-dose
  plasma Cys: 106 ± 6 µM
  plasma Hcy: 179 ± 10 µM
[2]
  elimination half-life (T1/2): 44.5 h
[3]; 0.33 mg/kg
  Initial Cmax, predicted: 11.3 mU/μL
[3]; 0.66 mg/kg
  Initial Cmax, predicted: 22.6 mU/μL
[3]; 1 mg/kg
  Initial Cmax, predicted: 34 mU/μL
[3]; [4]
  AUC/dose, human predicted value: 7474 (mU-h/mL)/(mg/kg)
  Cmax/dose, human predicted value: 34 (mU/μL)/(mg/kg)
[3]; human
  E intercept of hypothetical single dose PK curve: 43.079
[3]; [5]
  Peak @ SS, predicted: 22.6 mU/μL
  Trough @ SS, predicted: 15.4 mU/μL
[3]; [6]
  Peak @ SS, predicted: 41 mU/μL
  Trough @ SS, predicted: 34.5 mU/μL
[3]; [7]
  Peak @ SS, predicted: 45.2 mU/μL
  Trough @ SS, predicted: 30.8 mU/μL
[3]; [8]
  Peak @ SS, predicted: 82 mU/μL
  Trough @ SS, predicted: 69 mU/μL
[3]; [9]
  C1min, predicted: 22.3
  Peak @ SS, predicted: 67.9 mU/μL
  Trough @ SS, predicted: 46.2 mU/μL
[3]; human, 1 mg/kg SC 2x/wk (84 h)
  C1min, predicted: 29.0
  Peak @ SS, predicted: 123 mU/μL
  Trough @ SS, predicted: 109 mU/μL
[3]; human, 0 hours
  Extrapolated concentration: 0
[3]; human, 1 hours
  Extrapolated concentration: 0.9
[3]; human, 2 hours
  Extrapolated concentration: 2
[3]; human, 4 hours
  Extrapolated concentration: 4.3
[3]; human, 8 hours
  Extrapolated concentration: 8
[3]; human, 20 hours
  Extrapolated concentration: 20
[3]; human, 48 hours
  Extrapolated concentration: 33.3
[3]; human, 72 hours
  Extrapolated concentration: 34
[3]; human, 96 hours
  Extrapolated concentration: 28
[3]; human, 240 hours
  Extrapolated concentration: 16.7
[3]; human, 336 hours
  Extrapolated concentration: 12
[3]; human, 408 hours
  Extrapolated concentration: 8.5
